B1: CNTF: CNTF (577-NT) from R&D; induces differentiation of NSCs (protein, UniProt P26441 1-200, looked up)
Ciliary neurotrophic factor: MAFTEHSPLTPHRRDLCSRSIWLARKIRSDLTALTESYVKHQGLNKNINLDSADGMPVASTDQWSELTEAERLQENLQAYRTFHVLLARLLEDQQVHFTPTEGDFHQAIHTLLLQVAAFAYQIEELMILLEYKIPRNEADGMPINVGDGGLFEKKLWGLKVLQELSQWTVRSIHDLRFISSHQTGIPARGSHYIANNKKM
B2: Ang-1: human angiopoietin-1 (923-AN) from R&D (protein, UniProt Q15389 16-498, looked up)
Angiopoietin-1: HIGCSNQRRSPENSGRRYNRIQHGQCAYTFILPEHDGNCRESTTDQYNTNALQRDAPHVEPDFSSQKLQHLEHVMENYTQWLQKLENYIVENMKSEMAQIQQNAVQNHTATMLEIGTSLLSQTAEQTRKLTDVETQVLNQTSRLEIQLLENSLSTYKLEKQLLQQTNEILKIHEKNSLLEHKILEMEGKHKEELDTLKEEKENLQGLVTRQTYIIQELEKQLNRATTNNSVLQKQQLELMDTVHNLVNLCTKEGVLLKGGKREEEKPFRDCADVYQAGFNKSGIYTIYINNMPEPKKVFCNMDVNGGGWTVIQHREDGSLDFQRGWKEYKMGFGNPSGEYWLGNEFIFAITSQRQYMLRIELMDWEGNRAYSQYDRFHIGNEKQNYRLYLKGHTGTAGKQSSLILHGADFSTKDADNDNCMCKCALMLTGGWWFDACGPSNLNGMFYTAGQNHGKLNGIKWHYFKGPSYSLRSTTMMIRPLDF

How the values were obtained:
Notch receptor = Notch receptor cleavage (activation) in NSC cultures; type: cell-based, mouse; conditions: effect of inhibitor; DAPT 1 μM
Experimental: (§1) Cell culture: E13.5 cortical embryonic mouse CNS stem cells were grown as previously described (Johe, et al., Genes Dev 10, 3129-40, 1996). Cells were expanded in serum-free DMEM/F12 medium with N2 supplement and FGF2 (20 ng/ml) for 5 days under 5% oxygen conditions and were re-plated fresh or from frozen stocks at 1,000-10,000 cells per cm^2. FGF2 was included throughout the studies, unless otherwise stated. Adult rat (3-6 months old) or adult mouse (2-4 months old) SVZ NSC cultures were grown in the same medium as the fetal cultures.
(§2) Pharmacological treatments: Unless otherwise stated, the following concentrations were used: Dll4 and Ang-2 (in vitro, 500 ng/ml; in vivo 12.5 μg as a single injection), FGF2 (in vitro, 20 ng/ml), JAK inhibitor (in vitro, 200 nM; in vivo, 250 ng as a single injection), insulin (in vitro, 25 μg/ml; in vivo, 40 μg as a single injection), DAPT (1 μM), Fluorogold (0.5 μg). For the survival assays, compounds were added daily and Notch ligands every 2 days for the duration of the experiment. For the effects of kinase inhibitors on Notch activation, cells were pre-incubated for 1 h prior to Notch activation.
It was previously shown that in NSCs Notch activation leads to rapid phosphorylation of Akt (Androutsellis-Theotokis, A. et al., Nature 442, 823-6, 2006), a mediator of insulin signalling (Cantley, Science 296, 1655-7, 2002). […] Activation of the Notch receptor by addition of insulin or Dll4 was inhibited by DAPT, a γ-secretase inhibitor that blocks Notch cleavage. […] Insulin maintained STAT3-Ser727 phosphorylation levels, and acutely (1-h) induced it following a 16-h insulin withdrawal phase (FIG. 1c).

insulin/IGF-1 receptors = assay: Insulin/IGF-1 receptor activation in NSC cultures; type: cell-based, mouse; conditions: effect of inhibitor; DAPT 1 μM
Experimental: as §1, §2
It was previously shown that in NSCs Notch activation leads to rapid phosphorylation of Akt (Androutsellis-Theotokis, A. et al., Nature 442, 823-6, 2006), a mediator of insulin signalling (Cantley, Science 296, 1655-7, 2002). […]

Hes3 = Hes3 protein immuno-staining in fetal NSC cultures; type: cell-based, mouse; conditions: 2 day treatment
Experimental: as §1
Hes3 mRNA is present in fetal NSC cultures under conditions that support their self-renewal but CNTF-induced differentiation (Bonni, A. et al., Science 278, 477-83, 1997; Rajan & McKay, J Neurosci 18, 3620-9, 1998): downregulates Hes3 message (Androutsellis-Theotokis, A. et al., Nature 442, 823-6, 2006). Knockout studies have shown a role of Hes3 in self-renewal (Hatakeyama, J. et al., Development 131, 5539-50, 2004). It was investigated if Hes3 mediates stem cell functions in vitro to assess its use as a functional NSC marker. Fetal (E13.5) cortical tissue was dissociated and magnetic sorting was used to isolate a cell population that expressed AC133, an established marker of NSCs (Uchida, N. et al., Proc Natl Acad Sci USA 97, 14720-5, 2000). […]

Ang-1 = Ang-1 expression in fetal NSC cultures; type: cell-based, mouse; conditions: fetal NSCs in culture, treatment 2 days
Experimental: as §1
(§3) Fetal NSCs in culture express Ang-1, and treatment (2 days) with Dll4 maintained it whereas CNTF reduced it. Ang-2 expression was maintained under these conditions. […] Ang-2 induced mTOR and STAT3-S727 phosphorylation, unlike Ang-1 (FIG. 2a). Ang-1, however, induced Akt phosphorylation.

NSC cultures = assay: Incidence of Tie-2 spikes in NSC cultures; type: cell-based; conditions: for % of cells with at least one spike: NSC cultures; for spike number: thirty minutes after treatment
Experimental: A protrusion of the cell membrane was identified in neuronal stem cells (NSCs) when the Tie-2 receptor is concentrated. This can be visualized using antibodies that bind Tie-2. The protrusion was termed a spike. These spikes appear 30 minutes after treatment with pharmaceutical agents. […] increase spike number thirty minutes after treatment. […] Thus, a novel sub-cellular structure ahs been identified. These structures could regulate the responsiveness of cells to treatments.
Thus, a novel protrusion of the cell membrane in NSCs has been identified where the Tie-2 receptor is concentrated. This can be easily visualized using an antibody against Tie-2 that recognizes a particular epitope. […] Indeed, the spike is devoid of actin filaments or tubulin. The spikes can be detected within thirty minutes of contacting the cultures with an the factors. Thus, the spikes provide a rapid assay for the effect of pharmacologic agents.

mTOR = mTOR phosphorylation in NSC cultures (Western blot); type: cell-based, mouse; conditions: NSC cultures, 0.5 μg/ml (FIG. 2a, Example 3)
Experimental: as §1, §3
Three characterized Tie-2 receptor antibodies were used to determine if the Tie-2 receptor was expressed in the immature neural precursor cells found in the SVZ of the adult brain. When ligand is bound, the Tie-2 receptor becomes phosphorylated. An antibody that recognizes the activated receptor (RnD Systems, AF2720) and another antibody that binds to a distinct site (Santa Cruz, sc-324) identified many positive cells in the subventricular zone of the adult rat brain. In regions that were more distant from the ventricle, Tie-2 was expressed predominantly on blood vessels and endothelial cells reacted with antibodies against the activated receptor. Precursor cells that proliferate in vitro can be readily derived from the fetal and adult brain. The homogeneity of these cell populations in attached culture and their potential to generate neurons and glia is supported by clonal analysis. […] This colony number assay measured the survival of precursor cells that could differentiate into neurons and glia (See, Table 1).

Akt = Akt phosphorylation in NSC cultures; type: cell-based, mouse; conditions: 0.5 μg/ml (FIG. 2a)
Experimental: as §1, §3

Row | Molecule | Activation of the Notch receptor by addition of insulin or Dll4 (Notch receptor) | Activation of the insulin/IGF-1 receptors by insulin treatment (insulin/IGF-1 receptors) | Hes3 protein expression (Hes3) | Ang-1 expression (Ang-1) | % of cells with at least one spike (NSC cultures) [%] | spike number (NSC cultures) | mTOR phosphorylation (mTOR) | Akt phosphorylation (Akt)
1 | C[C@H](NC(=O)Cc1cc(F)cc(F)c1)C(=O)N[C@H](C(=O)OC(C)(C)C)c1ccccc1 [DAPT, reference compound] | inhibited | partly blocked |  |  |  |  |  | 
2 | B1 |  |  | lost | reduced | 0.8 | do not increase |  | 
3 | B2 |  |  |  |  | 0.8 | do not increase | inhibits | induced

Source: patent US20110105393A1, “METHODS FOR PROMOTING STEM CELL PROLIFERATION AND SURVIVAL” (priority 2007, published 2011)
